Entries after “also recorded” stand apart in the source; their conditions may differ.
Tests used:
hPTH-2 receptors = biological target: T1, hPTH-2 receptors (Homo sapiens, UniProt P49190); test: phospholipase C activation in HPR2-22 cells; format: cell-based; conditions: 1.5 million hPTH-2 receptors per cell, 1,000 nM (FIG. 5)
T1 construct: expressed in transfected cells
From the text: (§1) The following cell lines were used in these studies. HKRK C53 subclones of LLC-PKI porcine renal epithelial cells which stably express human PTH-1 receptors (150,000 receptors/cell). SaOS-2 cells are transformed human osteosarcoma cells which express relatively few (10,000-20,000 per cell) human PTH-1 receptors. HPR2-7 cells are subclones of LLC-PK1 which express approximately 250,000 recombinant human PTH-2 receptors per cell. HKRK-B7 cells are subclones of LLC-PK which stably express approximately 1 million hPTH-1 receptors per cell. HPR2-22 cells are subclones of LLC-PK1 which express 1.5 million recombinant hPTH-2 receptors per cell. The HPR2-27 and HPR2-22 cell lines were created in the same fashion as the HKRK cells but employing instead type 2 PTH receptor cDNA using the transfection technique of (Bringhurst, F. R., et al., Endocrinology 132(5):2090-2098 (1993); Guo, J., et al., Endocrinology 136(9):3884-3891 (1995)).
(§2) PLC was activated by PTH agonists in the presence of 30 mM LiCl at 37° C. for 30 min after 16 hr of labeling with [^3H]myo-inositol (3uCi/ml) in serum-free medium containing 0.1% bovine serum albumin. The reactions were stopped by rapid aspiration and addition of cold 5% TCA. Water-soluble radiolabeled inositol trisphosphate (IP3) was isolated after ether extraction by ion-exchange chromatography (Guo, J., et al., Endocrinology 136(9):3884-3891 (1995)). In experiments involving HEK 293 cells, cells previously transfected with human PTHR cDNA (in the pcDNA1 expression vector HKRK) using Lipofectamine (Gibco BRL) were labeled with [^3H]myo-inositol and assayed as described above, except that total water-soluble [^3H]inositol polyphosphates were collected as a single fraction from the ion-exchange columns.

hPTH-1 receptors [1] = biological target: T2, hPTH-1 receptors (Homo sapiens, UniProt Q03431); test: cAMP measurements in SaOS-2 cells; format: cell-based; set-up: expressed in transfected cells; conditions: SaOS-2 cells, 10,000-20,000 human PTH-1 receptors per cell; up to 1 uM (FIG. 2)
T2 sequence (Q03431 27-593): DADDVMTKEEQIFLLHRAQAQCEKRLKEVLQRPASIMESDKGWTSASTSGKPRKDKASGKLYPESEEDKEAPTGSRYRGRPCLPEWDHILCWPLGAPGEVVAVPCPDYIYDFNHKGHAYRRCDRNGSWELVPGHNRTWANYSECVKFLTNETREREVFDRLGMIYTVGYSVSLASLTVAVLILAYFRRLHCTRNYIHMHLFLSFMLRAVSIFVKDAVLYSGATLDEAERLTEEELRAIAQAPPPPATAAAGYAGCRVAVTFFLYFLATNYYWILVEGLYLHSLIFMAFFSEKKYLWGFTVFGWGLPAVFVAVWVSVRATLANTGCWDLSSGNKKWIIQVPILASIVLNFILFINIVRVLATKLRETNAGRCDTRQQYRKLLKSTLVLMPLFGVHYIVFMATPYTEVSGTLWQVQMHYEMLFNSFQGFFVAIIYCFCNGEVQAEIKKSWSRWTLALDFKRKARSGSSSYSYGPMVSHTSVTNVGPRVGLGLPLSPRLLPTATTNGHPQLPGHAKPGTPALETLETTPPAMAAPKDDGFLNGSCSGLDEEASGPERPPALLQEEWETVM
From the text: as §1
(§3) Intracellular cAMP accumulation, PLC activation and PTHR binding affinity were measured as previously reported (Bringhurst, F. R., et al., Endocrinology 132(5):2090-2098 (1993); Guo, J., et al., Endocrinology 136(9):3884-3891 (1995)). Intracellular cAMP accumulation was measured in extracts of cells that were exposed to human PTH peptides in the presence of isobutylmethyxanthine (IBMX, 1 mM) at 37° C. for 15 min. After terminating the reactions by aspiration and freezing in liquid nitrogen, cell monolayers were extracted with 50 mM HCl and cAMP was measured using a radioimmunoassay kit (Dupont-New England Nuclear, Boston, Mass.).

hPTH-1 receptors [2] = biological target: T2, hPTH-1 receptors; test: phospholipase C (PLC) activity in HKRK-B7 cells; format: cell-based; set-up: expressed in transfected cells; conditions: about 1 million hPTH-1 receptors per cell, 1000 nM (FIG. 4)
From the text: as §1, §2

hPTH-1 receptors [3] = biological target: T2, hPTH-1 receptors; test: PLC activation in HEK-293 cells transiently transfected with human PTHR cDNA; format: cell-based; set-up: expressed in transfected cells; host or cells: HEK-293 human embryonic kidney cells, transient transfection with Lipofectamine; conditions: HEK-293 cells transiently transfected with human PTHR cDNA (data not shown)
Description: as §2

hPTH-1 receptors [4] = biological target: T2, hPTH-1 receptors; test: radioligand competition binding to HKRK B28 cells; set-up: expressed in transfected cells; conditions: HKRK B28 cells, 280,000 human PTH-1 receptors/cell (FIG. 6)
Description: Radioligand competition binding assays were performed at 2-8° C. for 6 hr using ^125I-[Nle^8,21]rat PTH-(1-34) (100,000 cpm/well) in the presence or absence of non-radioactive hPTH-(1-34) analogs. Cell layers were washed three times before solubilization for determination of cell-associated radioactivity.

hPTH-1 receptors [5] = biological target: T2, hPTH-1 receptors; test: AC activation in HKRK B7 cells; format: cell-based; set-up: expressed in transfected cells; conditions: HKRK B7 cells (large number of human PTH-1 receptors)
From the text: as §1, §3

hPTH-1 receptors [6] = biological target: T2, hPTH-1 receptors; test: cAMP accumulation (adenylyl cyclase activation) in HKRK C53 cells; format: cell-based; set-up: expressed in transfected cells; conditions: HKRK C53 cells, about 150,000 hPTH-1 receptors per cell; 10^-9M and 10^-7M peptide (FIG. 1)
From the text: as §1, with “HKRK-B7 cells are subclones of LLC-PK which stably express approximately 1 million hPTH-1 receptors per cell. HPR2-22 cells are subclones of LLC-PK1 which express 1.5 million recombinant hPTH-2 receptors per cell.” left out
as §3

human PTHRs [7] = biological target: T3, human PTHRs (Homo sapiens, UniProt Q03431); set-up: host or cells: LLC-PK1, COS-7 or HEK 293 cells; conditions: human PTHRs in LLC-PK1, COS-7 or HEK 293 cells; cited from earlier work
T3 sequence (Q03431 27-593): T2 sequence (Q03431 27-593)

human PTHRs [8] = biological target: T3, human PTHRs; set-up: host or cells: LLC-PK1, COS-7 or HEK 293 cells; conditions: human PTHRs in LLC-PK1, COS-7 or HEK 293 cells; cited from earlier work; remark: listed apart in the source

T1 sequence (P49190 25-550): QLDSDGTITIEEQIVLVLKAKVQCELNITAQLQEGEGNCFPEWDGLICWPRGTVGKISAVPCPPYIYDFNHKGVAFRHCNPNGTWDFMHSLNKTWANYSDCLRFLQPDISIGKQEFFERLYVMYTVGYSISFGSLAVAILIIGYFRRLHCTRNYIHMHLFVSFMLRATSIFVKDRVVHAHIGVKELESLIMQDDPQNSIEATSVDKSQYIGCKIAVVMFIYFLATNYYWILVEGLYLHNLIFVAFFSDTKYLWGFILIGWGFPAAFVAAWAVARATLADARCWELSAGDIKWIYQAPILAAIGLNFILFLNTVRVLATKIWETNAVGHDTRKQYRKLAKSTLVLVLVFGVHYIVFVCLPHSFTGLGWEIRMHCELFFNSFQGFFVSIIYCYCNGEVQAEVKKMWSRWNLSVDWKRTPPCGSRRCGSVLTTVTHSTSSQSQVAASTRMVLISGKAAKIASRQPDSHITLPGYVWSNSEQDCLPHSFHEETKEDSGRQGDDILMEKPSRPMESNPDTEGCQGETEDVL

hPTH(2-34): N-truncated human PTH peptide, residues 2-34 (VSEIQLMHNLGKHLNSMERVEWLRKKLQDVHNF)
activation of phospholipase C (hPTH-2 receptors): only a partial agonist | cyclase (cAMP) activity compared with control hPTH(1-34) (hPTH-1 receptors [1]): very weak agonists | activation of PLC (hPTH-1 receptors [2]): did not elicit PLC activity | activation of PLC (hPTH-1 receptors [2]; listed as Human PTH(2-34)): inactive | activation of PLC (hPTH-1 receptors [3]): inability | competitive displacement of 125I-[Nle8,21]rPTH(1-34) radioligand binding (hPTH-1 receptors [4]): binds as well | activation of AC compared with hPTH-(1-34) (hPTH-1 receptors [5]): comparable in magnitude and sensitivity to that of hPTH-(1-34); also recorded: approximately equipotent | cyclic AMP accumulation, efficacy compared with native hPTH(1-34)NH2 (hPTH-1 receptors [6]): similarly reduced activity

hPTH-(1-31): C-truncated human PTH peptide, residues 1-31
potency in activating PLC compared with hPTH-(1-34) (human PTHRs [7]): as potent as hPTH-(1-34) | potency in activating AC compared with hPTH-(1-34) (human PTHRs [8]): as potent as hPTH-(1-34)

Reference: patent US6537965B1, “Amino-terminal modified parathyroid hormone (PTH) analogs” (The General Hospital Corporation, priority 1998, dated 2003)
